The values below come from publication PMC3982596.

The target of the assay is YFP-LacI-HP1α (human) (UniProt P45973).
Chain of UniProt P45973 (P45973 whole entry): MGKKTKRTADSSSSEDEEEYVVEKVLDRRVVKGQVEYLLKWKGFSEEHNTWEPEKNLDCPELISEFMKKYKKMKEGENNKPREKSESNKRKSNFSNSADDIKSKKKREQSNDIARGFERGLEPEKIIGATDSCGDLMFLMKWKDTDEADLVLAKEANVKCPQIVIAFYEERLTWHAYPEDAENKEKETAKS

Regarding “CFP-NDR1 (from UniProt Q15208 1-465) (enzyme)”, the percent of cells with the binder at the tethered locus (% of the cells) worked out at 18.
